Data from patent publication US9447157B2, “Nitration shielding peptides and methods of use thereof” (Augusta University Research Institute, Inc., priority 2013, dated 2016).
Entries after “also recorded” stand apart in the source; their conditions may differ. No end group written: not given here. *: point of attachment. X1 = 3‑carboxy‑2,2,5,5‑tetramethyl‑3‑pyrrolin‑1‑yloxy, CC1(C)C=C(C(=O)*)C(C)(C)N1[O]

Experiments:
[1] = test system: human lung microvascular endothelial cells (HLMVEC); assay: Endothelial monolayer resistance (ECIS, TER) in LPS-challenged HLMVEC; assay type: cell-based; conditions: for Attenuation of LPS-mediated decrease in transendothelial resistance (TER) / barrier disruption: HLMVEC, LPS 1 EU/ml, MnTMPyP 25 μM, ETU 200 μM, 1400W 100 μM
Method: The electrical resistance of the endothelial cell monolayer was measured with the electrical cell impedance sensor (ECIS) technique. In this system, the cells are cultured on gold plated electrodes. The change in resistance across the monolayer is measured through an amplifier attached to the arrays. Each study was performed when the resistance reached a plateau. The data was normalized to the initial voltage and plotted as a normalized resistance.
To examine if protein nitration by peroxynitrite is a contributing factor in endothelial barrier disruption in response to LPS, transendothelial resistance (TER) was measured in HLMVEC in the presence or absence of the peroxynitrite scavenger, MnTmPyp. HLMVEC were challenged with LPS (1 EU/ml) in the presence or absence of the peroxynitrite scavenger, MnTMPyP (25 μM).
To evaluate the role played by NOS in the barrier dysfunction, HLMVEC were exposed to LPS in the presence or absence of ETU (a non-specific NOS inhibitor) or 1400W (to inhibit iNOS). HLMVEC were challenged with LPS (1 EU/ml) in the presence or absence of the general NOS inhibitor, ETU (200 μM) or the iNOS specific inhibitor, 1400W (100 μM). The LPS-mediated decrease in TER was attenuated in the presence of ETU, but not 1400W (FIG. 1B). The important role of eNOS was then confirmed using a siRNA approach. HLMVEC were transiently transfected with a siRNA against eNOS or a scrambled control siRNA. After 48 h, there was a significant knockdown of eNOS protein levels (50%), as determined by Western blotting. Reducing eNOS protein levels preserved HLMVEC barrier function when challenged with LPS (FIG. 1C).

Recombinant human PKG-Iα = biological target: T1, Recombinant human PKG-Iα (Homo sapiens, UniProt Q13976); assay: PKG-Iα activity assay with SIN-1 and shielding peptide; assay type: biochemical
T1 sequence (Q13976 2-671): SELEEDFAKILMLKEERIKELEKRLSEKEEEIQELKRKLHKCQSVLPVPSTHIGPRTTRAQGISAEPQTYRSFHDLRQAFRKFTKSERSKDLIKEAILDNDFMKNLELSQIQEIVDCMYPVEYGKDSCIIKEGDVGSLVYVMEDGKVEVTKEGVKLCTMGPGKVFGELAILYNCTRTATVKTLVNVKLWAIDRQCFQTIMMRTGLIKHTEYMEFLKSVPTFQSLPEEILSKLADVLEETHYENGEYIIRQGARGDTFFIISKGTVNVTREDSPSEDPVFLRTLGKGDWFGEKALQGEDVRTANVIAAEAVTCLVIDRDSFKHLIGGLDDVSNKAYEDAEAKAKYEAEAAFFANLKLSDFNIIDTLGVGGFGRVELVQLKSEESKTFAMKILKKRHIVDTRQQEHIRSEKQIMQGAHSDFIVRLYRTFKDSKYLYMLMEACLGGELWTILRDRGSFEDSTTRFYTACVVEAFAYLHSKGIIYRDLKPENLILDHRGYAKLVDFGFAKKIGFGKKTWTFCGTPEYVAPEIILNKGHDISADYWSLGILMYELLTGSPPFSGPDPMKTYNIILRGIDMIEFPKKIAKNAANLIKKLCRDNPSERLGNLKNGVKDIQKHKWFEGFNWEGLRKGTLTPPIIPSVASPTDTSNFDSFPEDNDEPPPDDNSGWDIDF
Method: A PKG-Iα activity assay was carried out using HLMVEC. Recombinant human PKG-Iα18 was exposed to the peroxynitrite generator, SIN-1 (200 μM, 10 min) with increasing concentrations of the shielding peptide (0-10 μg).

RhoA [2] = biological target: T2, RhoA (Mus musculus, UniProt Q9QUI0); assay: RhoA activity, nitration and protein in lungs of LPS treated mice; assay type: in vivo
T2 construct: from tissue; host or cells: mouse lung (male C57Bl/6)
T2 sequence (Q9QUI0 whole entry): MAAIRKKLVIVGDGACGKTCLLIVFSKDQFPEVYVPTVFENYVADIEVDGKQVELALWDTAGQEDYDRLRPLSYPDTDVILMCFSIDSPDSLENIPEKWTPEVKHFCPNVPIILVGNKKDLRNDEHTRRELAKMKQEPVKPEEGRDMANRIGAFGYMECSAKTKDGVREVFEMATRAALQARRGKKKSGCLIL
Method: The Committee on Animal Research at Georgia Regents University approved all animal protocols and procedures. Stock solutions of Escherichia coli LPS (0111:B4) were prepared in saline. […] Mice were examined 24 h after LPS treatment. At the end of the treatment lungs were flushed with 3 ml of ice-cold PBS (5 mM EDTA), excised, dipped in saline and blotted dry. A portion of the lung was quickly snap-frozen in liquid nitrogen, crushed to powder in a pre-chilled mortar and stored at -80° C. The remaining lung tissue was stored at -80° C. […] After 24 h, mice were sacrificed and lung tissue was obtained to determine RhoA activity and RhoA nitration, LPS induced RhoA activation in the mouse lung as in HLMVEC (FIG. 7A). […] Total RhoA protein levels and basal RhoA nitration were measured. […] Likewise, basal RhoA nitration levels (FIG. 7D) were unchanged.

HLMVEC = assay: Total protein nitration (3-NT/β-actin) in LPS-treated HLMVEC; assay type: cell-based, human; conditions: peptide 100 ng/ml 30 min, then LPS 1 EU/ml
From the text: Cell extracts were separated on 4-20% gels and electrophoretically transferred to PVDF membrane (Bio-Rad), then blocked with 5% nonfat dry milk in Tris-buffered saline. The membranes were probed with antibodies to RhoA (Cell Signaling), eNOS (BD), iNOS (Cell Signaling), or 3-Nitrotyrosine (Calbiochem). Reactive bands were visualized using chemi-luminescence (Pierce) on a Kodak 440CF image station. Band intensity was quantified using Kodak 1D image processing software. Protein loading was normalized by re-probing with mouse anti-β-actin.

RhoA [3] = biological target: T3, RhoA (Homo sapiens, UniProt P61586); assay: Biotin pull down assay of peptide binding to RhoA; set-up: polyHis (6His); made in house; host or cells: Escherichia coli BL21; conditions: peptide 100 ng/ml, recombinant human RhoA 0.1 mg
T3 sequence (P61586 whole entry): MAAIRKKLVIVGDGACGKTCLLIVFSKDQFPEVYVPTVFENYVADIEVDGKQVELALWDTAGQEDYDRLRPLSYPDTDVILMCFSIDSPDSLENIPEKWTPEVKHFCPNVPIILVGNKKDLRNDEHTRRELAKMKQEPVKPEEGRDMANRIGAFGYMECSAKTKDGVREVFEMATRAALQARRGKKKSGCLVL
Method: To evaluate the ability of each peptide to bind to RhoA each peptide (100 ng/ml) was mixed with recombinant human RhoA (0.1 mg) for the biotin pull down assay.

RhoA [4] = biological target: T3, RhoA; assay: RhoA nitration, immunoprecipitation and 3-NT blot, in LPS-treated HLMVEC; assay type: cell-based; set-up: endogenous in cells; host or cells: HLMVEC (human lung microvascular endothelial cells); conditions: MnTMPyP, LPS 1 EU/ml 4 h
From the text: HLMVEC were lysed and centrifuged at 6,000×g and the supernatant collected as previously described (Sud, N., et al., Am. J. Physiol. Lung Cell Mol. Physiol. 293, L1444-1453 (2007); Sharma, S., et al., Am. J. Physiol. Lung Cell Mol. Physiol. 294, L46-56 (2008)). Cell extracts were separated on 4-20% gels and electrophoretically transferred to PVDF membrane (Bio-Rad), then blocked with 5% nonfat dry milk in Tris-buffered saline. The membranes were probed with antibodies to RhoA (Cell Signaling), eNOS (BD), iNOS (Cell Signaling), or 3-Nitrotyrosine (Calbiochem). Reactive bands were visualized using chemi-luminescence (Pierce) on a Kodak 440CF image station. Band intensity was quantified using Kodak 1D image processing software. Protein loading was normalized by re-probing with mouse anti-β-actin.
HLMVEC were homogenized in IP buffer (25 mM Hepes, pH 7.5, 150 mM NaCl, 1% NP-40, 10 mM MgCl2, 1 mM EDTA, 2% glycerol supplemented with protease inhibitors). To precipitate the bound protein, 10 μl of a protein A/G agarose suspension (EMD/Calbiochem) was added for 2 h at 4° C. The samples were then centrifuged at 14,000 rpm for 5 min, the supernatant removed, and the beads washed 3× with IP buffer. Twenty μl of 2× Laemmli buffer was added, the samples were boiled for 5 min, and analyzed as described above. Immunoprecipitation efficiency was normalized by re-probing with RhoA.

RhoA [5] = biological target: T3, RhoA; assay: RhoA activity, Rhotekin RBD pull-down, in LPS-treated HLMVEC; assay type: cell-based; set-up: endogenous in cells; host or cells: HLMVEC (human lung microvascular endothelial cells); conditions: MnTMPyP 25 μM 30 min pre-treatment, LPS 1 EU/ml 4 h
Method: RhoA activity levels were measured using the Rhotekin Rho Binding Domain (RBD) pull-down assay. Briefly, 2×10^6 cells were seeded in 10 cm dishes and incubated overnight in DMEM with 10% FBS and 5% antibiotics. The cells were then pretreated with the peroxynitrite scavenger, MynTMPyp (25 μM), for 30 min. The cells were treated with LPS (1 EU/ml) for 4 h. The level of active RhoA pulled down by the assay was measured by Western blot analysis (see above).

RhoA [6] = biological target: T3, RhoA; assay: Stopped-flow kinetic analysis of mant-GDP/mant-GTP binding to RhoA; set-up: polyHis (6His); made in house; host or cells: Escherichia coli BL21; Binding constant of GDP to RhoA / GTP binding constant of RhoA: unit not given here; conditions: stop-flow, RhoA with or without peroxynitrite (100 μM, 30 min); for Binding constant of GDP to RhoA: mant-GDP; for GTP binding constant of RhoA: mant-GTP
Method: RhoA was treated with authentic peroxynitrite (500 μM, 30 min) to induce tyrosine nitration in buffered solution. For kinetic analyses, 2 μM of either mart-GTP or -GDP was mixed with RhoA (0.1 μM) in a stopped-flow instrument (SX-20, […]). Increases in fluorescent intensity mant-nucleotide binding to RhoA were then measured using excitation 350 nm and cutoff filter 395 nm for 0.2-1 second. Acquired kinetic curves for 3-5 experiments were averaged and fitted using the Pro-kineticist software to determine observed binding constants.
To test the validity of the MD data kinetic studies were performed. His-tagged human RhoA construct was expressed in the Escherichia con BL21 strain. First, the bacterial lysate was purified by 6His-tag affinity on a Ni-NTA column. Second, the proteins in the elution fraction from the affinity purification were separated by size-exclusion chromatography (FIG. 11). The fraction containing RhoA was identified both by Coomassie blue staining and Western blot analysis. The recombinant purified RhoA was subjected to rapid flow kinetics to evaluate GDP and GTP binding using fluorescently labeled guanine nucleotides. Peroxynitrite decreases GDP binding to purified RhoA. Human recombinant RhoA was exposed to authentic peroxynitrite (100 μM, 30 min) on ice. The kinetics of binding fluorescently labeled GDP (FIG. 12A) or GTP (FIG. 12B) to RhoA was then performed using stop-flow analysis. Three measurements were averaged and fitted with bimolecular reaction equation. […] However, nitration of RhoA had no effect on the GTP binding constant ([…]).

## CCSC(=N)N [ETU]
[1]
  Attenuation of LPS-mediated decrease in transendothelial resistance (TER) / barrier disruption: attenuated

## GALRQKNVK(X)-amide (SEQ ID NO:29), where X is 3-carboxy-2,2,5,5-tetramethyl-3-pyrrolin-1-yloxy (nitroxide) (GALRQKNVK(X1)-NH2; N-terminus assumed; SMILES CC(C)C[C@H](NC(=O)[C@H](C)NC(=O)CN)C(=O)N[C@@H](CCCNC(=N)N)C(=O)N[C@@H](CCC(N)=O)C(=O)N[C@@H](CCCCN)C(=O)N[C@@H](CC(N)=O)C(=O)N[C@H](C(=O)N[C@@H](CCCCNC(=O)C1=CC(C)(C)N([O])C1(C)C)C(N)=O)C(C)C; listed as Homo sapiens) [shielding peptide]
Recombinant human PKG-Iα; SIN-1 200 μM, 10 min, shielding peptide 0-10 μg
  PKG-Iα activity against peroxynitrite: preserves; also recorded: dose-dependently preserved
Recombinant human PKG-Iα; in vitro
  Physiologic PKG-Iα activity: did not alter
[1]; in vitro, LPS challenge
  Barrier function when challenged with LPS: preserved

## HRKKRRQRRRQFPVFVPTVF (SEQ ID NO:35) (listed as Homo sapiens) [NipR1F, control peptide in which Y34 was substituted with a phenylalanine residue]
RhoA [2]; peptide alone, no LPS
  Basal RhoA nitration levels in mouse lung: unchanged
RhoA [2]; peptide i.p. 0.1 mg/kg, with or without LPS
  Total RhoA protein levels in mouse lung: Neither peptide nor LPS treatment altered
HLMVEC
  Increase in total protein nitration induced by LPS: unaffected
RhoA [3]
  Interaction between RhoA and biotinylated peptide: strong interaction

## MnTMPyP
RhoA [4]
  Attenuation of LPS-induced RhoA nitration: attenuated
RhoA [5]
  Attenuation of LPS-induced increase in RhoA activity: attenuated
[1]
  Attenuation of LPS-mediated decrease in transendothelial resistance (TER) / barrier disruption: significantly attenuated

## RhoA+ONOO: human recombinant RhoA exposed to authentic peroxynitrite (nitrated)
RhoA [6]
  Binding constant of GDP to RhoA: 4.03
  GTP binding constant of RhoA: 36.2

## RhoA: His-tagged human recombinant purified RhoA
RhoA [6]
  Binding constant of GDP to RhoA: 19.8
  GTP binding constant of RhoA: 38.7
